Measurements: PMC6254361, “The properties of Msh2–Msh6 ATP binding mutants suggest a signal amplification mechanism in DNA mismatch repair” (The Journal of Biological Chemistry, 2018)
One block for each substance: values may come before it.

Key:
[1] = test system: Msh2;Msh6 (Saccharomyces cerevisiae;Saccharomyces cerevisiae); experiment: SPR; settings: SPR on streptavidin surface; buffer, salt, pH and temperature not given in the material; with or without 0.1-2.5 mM ATP; LacI end block, released by 1 mM IPTG
[2] = test system: Msh2(K694M);Msh6 (Saccharomyces cerevisiae;Saccharomyces cerevisiae); experiment: SPR; settings: ATP up to 2.5 mM, LacI; SPR on streptavidin surface; buffer, salt, pH and temperature not given in the material; with or without 0.1-2.5 mM ATP; LacI end block, released by 1 mM IPTG
[3] = test system: Msh2(K694R);Msh6 (Saccharomyces cerevisiae;Saccharomyces cerevisiae); experiment: SPR; settings: ATP up to 2.5 mM, LacI; SPR on streptavidin surface; buffer, salt, pH and temperature not given in the material; with or without 0.1-2.5 mM ATP; LacI end block, released by 1 mM IPTG
[4] = test system: Msh2;Msh6(G1142D) (Saccharomyces cerevisiae;Saccharomyces cerevisiae); experiment: SPR; settings: 0.1 and 2.5 mM ATP, LacI; printed as no more than 0.86; SPR on streptavidin surface; buffer, salt, pH and temperature not given in the material; with or without 0.1-2.5 mM ATP; LacI end block, released by 1 mM IPTG
[5] = test system: Msh2;Msh6;Mlh1;Pms1 (Saccharomyces cerevisiae;Saccharomyces cerevisiae;Saccharomyces cerevisiae;Saccharomyces cerevisiae); experiment: SPR; settings: ATP, LacI; SPR on streptavidin surface; buffer, salt, pH and temperature not given in the material; with or without 0.1-2.5 mM ATP; LacI end block, released by 1 mM IPTG
[6] = test system: Msh2(K694A);Msh6 (Saccharomyces cerevisiae;Saccharomyces cerevisiae); experiment: SPR; settings: ATP up to 2.5 mM, LacI; SPR on streptavidin surface; buffer, salt, pH and temperature not given in the material; with or without 0.1-2.5 mM ATP; LacI end block, released by 1 mM IPTG
[7] = molecular target: Walker A Lys mutant Msh2–Msh6 complexes (S. cerevisiae); experiment: SPR; Biacore T100; 236-bp GT mispair DNA held by biotin-streptavidin, other end blocked by lacO-LacI; 20 nM Msh2–Msh6, 250 μM ATP, 30 nM LacI for 100 s, then the same plus 40 nM Mlh1–Pms1 for 300 s; recruitment read as the increase in RU over steady-state Msh2–Msh6; 25 mM Tris pH 8, 4 mM MgCl2, 110 mM NaCl, 0.01% Igepal, 2 mM DTT, 2% glycerol; 10 °C, 20 μl/min; settings: scale: Mlh1–Pms1 complexes bound per Msh2–Msh6 complex
[8] = molecular target: S. cerevisiae Mlh1–Pms1 [S. cerevisiae]; experiment: SPR; settings: GT mispair-containing double end-blocked DNA surface; buffer with ATP and LacI; read off a plot

Substance: 236-bp +T mispair DNA
binding signal (% of WT RUmax) [1]: 100

Substance: 236-bp mispaired DNA, double end-blocked
binding signal (Msh2-Msh6 per DNA (maximum)) [2]: 1
binding signal (Msh2-Msh6 per DNA (maximum)) [3]: 1
binding signal (Msh2-Msh6 per DNA) [4]: < 0.86
binding signal (Mlh1-Pms1 per Msh2-Msh6) [5]: 1.07
binding signal (Msh2-Msh6 per DNA (maximum)) [6]: 1

Substance: S. cerevisiae Mlh1–Pms1 (from UniProt P38920 1-769; P14242 1-873) (complex)
stoichiometry N [7]: 2.06 to 3.75

Substance: S. cerevisiae Msh2–Msh6 (WT) mutant Msh2:K694A [S. cerevisiae] / S. cerevisiae Mlh1–Pms1 [S. cerevisiae] chain 3 K694A
screen value [8]: 3.5

The remaining lines, values ahead:

screen value [8]: 4.9
Substance: S. cerevisiae Msh2–Msh6 (WT) mutant Msh2:K694M [S. cerevisiae] / S. cerevisiae Mlh1–Pms1 [S. cerevisiae] chain 3 K694M

screen value [8]: 4.3
Substance: S. cerevisiae Msh2–Msh6 (WT) mutant Msh2:K694R [S. cerevisiae] / S. cerevisiae Mlh1–Pms1 [S. cerevisiae] chain 3 K694R

screen value [8]: 3.3
Substance: S. cerevisiae Msh2–Msh6 (WT) mutant Msh6:K988A [S. cerevisiae] / S. cerevisiae Mlh1–Pms1 [S. cerevisiae] chain 4 K988A

screen value [8]: 3.4
Substance: S. cerevisiae Msh2–Msh6 (WT) mutant Msh6:K988M [S. cerevisiae] / S. cerevisiae Mlh1–Pms1 [S. cerevisiae] chain 4 K988M

screen value [8]: 2.4
Substance: S. cerevisiae Msh2–Msh6 (WT) mutant Msh6:K988R [S. cerevisiae] / S. cerevisiae Mlh1–Pms1 [S. cerevisiae] chain 4 K988R
